Assay results taken from the nanobody polyreactivity screen of Harvey et al. (2022).

Assay: yeast display, Sf9 membrane polyspecificity reagent, FACS + sequencing; frameworks hold sequencing errors
In short: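 Genes from sorted yeast were amplified by colony PCR, read by MiSeq 2 × 250 sequencing and filtered on CDR length. These cells carried a synthetic nanobody library in Saccharomyces cerevisiae BJ5465 and were sorted by FACS into low and high (top ~1%) gates on anti-HA and streptavidin fluorescence. Polyreactivity is labelled according to the gate of origin.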

Row | Sequence | polyreactivity (PSR sort gate)
1 | QVQHVESGGGLVQAGGSLRLSCAASGFTFVYYAMGWYRQAPGKERELVAAISRSGSRTYYADSVKGRFTISRDNAKKTVYLQMNSLKPEDTAVYYCAVAGYSPYLYRYGYWVQGTQVTVSS | high polyreactivity
2 | QDQLVESGGGLVQAGGSLRLRCAASGRTFYMYAMGWYRQAPGKERELDAVISPSGGPTYYADSVKGRFTISRDNAKNPGSLQMNSMKPEDTAVFYCATDYAYSPYRYWTRYDYWGLGTQVTVSS | high polyreactivity
3 | QVQLVESGGGLVQAGGSLRLSCAASGFIFARYAMGWYREAPGKERELLAAITARGGSTYYADSVKGRFTISRDNAKNTVYLQMNSLKPEDTAVYYCADVSGYSTGGYRNRYNYWGQGTHVTVSS | high polyreactivity
4 | QVQLVESGGGLVQAGGSLRLSCAASGLIFTSYPMGWDRQAPGKERELVAAIDTSGGSTYYADSVKGRFTISRDNAKNTVYLQMNSLKPEDTAVYYCAATSTYRSYLEYDYWGQGTQVTVSS | low polyreactivity
5 | QVQLVESGGRLVQAGGSLRLSCAASGSIFSKYTMGWYRQAPGKERELVAAISRAGSTYYADSVKGRFTISRDNAKNTVYLQMNSLKPEDTAVYYCNARYRGVYPLIGNRRDYYYWGQGTQVTVSS | high polyreactivity
6 | QVQLVESGRGLVQAGGSLRLSCAASGSIFTHYAMVWYRQAPGKERELVATISNGDGSTYYADSVKGRFTISRDNAKNTVYLQMNSLKPEDTAVYYCNVDDFSQYADDSWGYEYWGQGTQVTVSS | low polyreactivity
7 | QVQLVESGGGLVQARGSLRLTCAASGSTFSENAMGWYRQAPGKERELVAAISRGGGRTYYADSVKGRFTISRDNAKNTVYLQMNSLKPEDTAVYYCNAGLPAGNHGYDYWGQGTQVTVSS | high polyreactivity
8 | QVQLVESGGCLVQAGGSLRLSCAASGSIFPGYAMGWYRQATGKERELVAAISTSGGSTYADSVKGRFTISRDNAKNTVYLQMNSLKPEDTAVYYCAATYTYTSPVYYYLDGPWPYDYWGQGTQVTVSS | low polyreactivity
9 | QVQLVESGGGLVQAGGSLRLSCAASGSTFDAYAMGWSRQAPGKERELVAAMTNAGSTNYADSVKGRFTISRDNAKNTVYLQMNSLKPEDTAVYYCATDWYHRYLDGRYDYLGQGTQVTVSS | low polyreactivity
10 | QVQLVESVGGLVQAGGSLRLSCPASGSTFRRYAMGWYRQAPGKERELVAAITRGGITYYADSVKGRFTISRDNAKNTFYLQMNSLKPEDTAVYYCAATTFGPYALYPRYYYWGQGTQVTVSS | high polyreactivity
11 | QVQLVESGAGLVQAGGSLRISCAASGFIFNEYAMGWYRQAPGKERELVAAISSGGSTYYADSVKGRFTISRDNAKNTVYLLINSLKPEDTAVYYCNALRRSQPWKYDYWGPGTQVTVSS | low polyreactivity
12 | QVQLVESGGGLVQAGGSLRLSCAASGRIFRSNAKGWYRQAPRKERELVAAISGGGSTYYADSVKGRFTISRDNAKNTVYLQMNSLKPEDTAVYYCAAGRHLAYWSRDYYYWGQGTQVTVSS | high polyreactivity
13 | QVQLVESGGGLVQAGGSLRLSCAASGFTFSWYALGWYRQAPGKERELVAAINWSGTSTYYADSVKGRFTISRDNAKNTVYLQMNSLKPEDTAVYYCNVVVYRWSPVSKLDYWGQGTQVTVSS | high polyreactivity
14 | QVQLVESGGGLVQAGGSLRLSCAASGSTFIGNAMGWYRQAPGKERELVAAISRTGGSTYADSVKGRFTISRDNAKNTVYLQMNSLKPEDTAVYYCAAKYYYIYYYWGQGTQVTVSS | high polyreactivity
15 | QVQIVESGGGLVQAGGSLRLSCSASGRIFVGNAMGWYRQAPGKERELVAAISQRGGSTYYADSVKGRFTISRDYAKNTVYFQMNSRKQDVTAVYSCNAACRRAATSIWSWYDHWGQGTQETVSS | low polyreactivity
16 | QVKLVESGGGLVQAGGSLRLSCAASGSTFYHNAIGWYRQAPGKERELVARITRGGSTDYADSVKGRFTISRDNAKNTVYLQMNSLKPEDTEVYYCAADIGHFERFYWGQGTQVTVSS | low polyreactivity

Row | Sequence | polyreactivity (PSR sort gate)
17 | QVQLVESGGGLVQAGGSLRLSCAASGFTFYTYVRGWYRQAPGKERELVAAITSGVSTNYADSVKGRFTISRDNAKNTVYLQMNSLKPEDTAVYYCNKDVRPAYRWYDYWGQDTQVTVSS | low polyreactivity
18 | QVQLVESGGGLVQAGGSLRLSCAASGIIFRSYAMGWYRQAPGKERELVAAITGGGTTNYADSVKGRFTISRDNAKNTVYLQMNSLKPEDTEVYYCNAGLDWFWFNEMDYWGQGTQVTVSS | low polyreactivity
19 | QVQLVESGGGLVQAGGSLRLSCAASGFIFYYYAMGWYRQAPGKEREFVAGISRSGGSTYYADSVKGRFTISRDNAKNTVYLQMKSLKPEDTAVYYCAARYVQHKIYRLAQGEYWGQGTQVTVSS | high polyreactivity
20 | QVQLVESGGGLVQEGGSLRLSCAASGRTFWAYAMGWYRQAPGKERELVAAITTSGGSTNYADSVKGRFTISRDNAKNTVYLQMNSLKPEDTADYYCNADPTYHVVNGVAYWGQGTQVTVSS | low polyreactivity
21 | QVQLVESGGGLVQAGGSLRLSCAASGGIIAINAMGWYRQAPGKERELVAAISWGDGITYYADSVKGRFTISRDNAKNTVDLQMNSLKPEDTAVYYCNARLLSGPGYDYWGQGTQVTVSS | low polyreactivity
22 | QVQLVESGGGLVQAGGSLRLICAASGFIFVWYAMGWYRQAPGKERELVAAISRRGGGTYYADSVKGRFTISRDNAKNTVYLQMNSLKPEDTAVYYCAAGSYYRYGYDFNYWGQGTQVTVSS | high polyreactivity
23 | QVQLVESGGGLVQAGGSLRLSCAASGSIFGGNAMGCYRQAPGKERELVAAITDGGNTNYADSVKGRFTISRDNAKNTVYLQMNSLKPEDTAVYYCAARMPGTYGGRYGYDYWGQGTQVTVSS | low polyreactivity
24 | QVQLEESGGGLVQAGGSLRLSCAASGFIFPHYAMGWYLQAPGKERELVAAISKSGDSTYYADSVKGRFTISRDNAKNTVYLQMNSLKPEDTAVYYCARRGRSLRWKYDYWGQGTQVTVSS | low polyreactivity
25 | QVQLVESGGGLVHAGGSLRLSCAASGSIFDDYAMGWYRQAPGKERELVAAITSGGSTYYADSVKGRFTISRDNAKNTVYLQMNSLKTEDTAVYYRATRYHWSSCFAPVGAYGYWGLGTQVTVSS | low polyreactivity
26 | QVQRVESRGGLVQAGGSLRLSCAASGSTFHRYVKGWSRTATGKERELVSVINSTGASTYYADSVKWRYTLSRDNAKNSVYLQMNSLKPEDTAVYYCARVTRRGPGYTTLYSRYDYWGQGTQVTVSS | low polyreactivity
27 | QVQLVESGGGLVQAGGSLRLSCAASGRIFAWYAMGWYRQAPGKERELVAAISDSGGSTYYADSVKGRFTISRDNAKNTVYLQMNSLKPEDTAVYYCAADQVVYSAYWSDHYDYWGQGTQVTVSS | low polyreactivity
28 | QVQLVESGGGLVQAGGSLRLSCAASGRIIYYNAMGWYRQAPGKERDLVARISSGGSTNYADSVKGRFTFSRDNAKNTVYLQMISLKPEDTAGDYCAVAKGGLAWGVGRAGRYDYWGQGTQVTLSS | low polyreactivity
29 | QVQLVESGGGLVQAGGSLRLSCAASGLTFRKYAMGWYRPAPGKEREWVAAITRGGSTNYADSVKGRFTISRDNAKNTVYLQMNSLKPEDTAVYYCAAQYTYRFPYPGYATTHDYWGQGTQVTVSS | high polyreactivity
30 | QVQLVESGGGLVQAGGSLRLSCAASGSIFYTNAMGWYRQAPGKEMEFVASITYRGSNTYYADSVKGRFTISRDNAKTTVYLQMNSLKPEDTAVYYCGADSFYYRPEYDYWGLGTQVTVSS | low polyreactivity
31 | QVQLVDSGGGLVQAGGSLRLSCPASGRIFGRNAMAWYRQAPGKERELVAAISSSGGTYYADSVKGRFTISRDNAKNTVYLQMNSLKPEDTAVYYCAADPLYYWWRGDYWGQGTQVTVSS | high polyreactivity
